Reference: patent US20140112930A1 (published 2014)

T1: wild-type human Ang-2 (hAng-2-WT) (human, UniProt O15123 19-496)
T1 construct: called full-length wild-type; also called Full-length wild-type human Ang-2
T1 sequence: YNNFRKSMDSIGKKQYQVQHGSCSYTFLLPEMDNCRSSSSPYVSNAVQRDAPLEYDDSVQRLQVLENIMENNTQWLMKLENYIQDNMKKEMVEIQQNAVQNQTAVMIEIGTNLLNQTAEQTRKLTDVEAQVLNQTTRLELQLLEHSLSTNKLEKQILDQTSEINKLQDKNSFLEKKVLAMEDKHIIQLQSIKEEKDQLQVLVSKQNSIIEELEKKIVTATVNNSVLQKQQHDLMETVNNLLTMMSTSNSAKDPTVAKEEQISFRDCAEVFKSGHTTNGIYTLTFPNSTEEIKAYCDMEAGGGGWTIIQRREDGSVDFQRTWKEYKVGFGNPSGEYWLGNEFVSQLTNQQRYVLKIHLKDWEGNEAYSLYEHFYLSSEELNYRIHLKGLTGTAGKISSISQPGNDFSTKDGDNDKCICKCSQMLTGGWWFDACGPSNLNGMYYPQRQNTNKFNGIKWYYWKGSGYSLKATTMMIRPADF

T2: Monomeric hAng-2FD (human, UniProt O15123 282-496)
T2 construct: also called fibrinogen-like domain of human Ang2; Human Ang-2FD
T2 sequence: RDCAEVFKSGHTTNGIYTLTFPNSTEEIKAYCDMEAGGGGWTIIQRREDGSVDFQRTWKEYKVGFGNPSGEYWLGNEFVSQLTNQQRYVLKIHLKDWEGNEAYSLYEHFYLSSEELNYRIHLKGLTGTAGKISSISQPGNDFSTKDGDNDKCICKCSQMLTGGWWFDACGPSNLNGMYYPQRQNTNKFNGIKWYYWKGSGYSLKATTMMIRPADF

B1: H2M743N (antibody, V domains shown)
VH: EVQLLESGGGLVQPGGSLRLSCAASGFTFRKYAMSWVRQAPGKGLEWVSVISVSGGNTYYADSVKGRFTISRDNSKNTLYLQLNSLRAEDTAVYYCAKDLTDIVLMVYVDYWGQGTLVTVSS
VL: DIQMTQSPSSVSASVGDRVTITCRASQDIDRWLAWYQQKPGKAPKLLIYAASSLQSGVPSRFSGSGSGTDFTLTISTLQPEDFATYYCQQANSLPFTFGGGTKVEIK
B2: H2M742N (antibody, V domains shown)
VH: DVQLLESGGDLVQPGGSLRLSCEASGFTFRNYVMIWVRQAPGKGLEWVSGISNSGGTTHYTDSVKGRFTISRDNSKNTLYLQINSLRAEDTAVYYCAKGYLDTSLIEGNWFDPWGQGTLVTVSS
VL: NIVMTQSPLSLPVTPGEPASISCRSSQSLLHSNGFNYLNWFLQKPGQSPQLLIYLGSNRASGVPDKFSGSGSGTDFTLNINRVEAEDVGIYFCMQTLQTPLTFGGGTKVEIK
B3: H1M728N (antibody, V domains shown)
VH: EVQLVESGGDLVQPGGSLRLSCTASGFTFSKYWMTWVRQAPGRGLEWVANIKEDGNEKYFLDSVKGRFTISRDNAKDLLFLQMNSLRGEDTAVYYCVRDRGIEVAGPFDYWGQGTLVTVSS
VL: DIQMTQSPSTLSASVGDRVTVTCRASQTIINWLAWYQQKPGKAPKLLISKASSLESGVPSRFSGSGSGTEFTLTISSLQPDDFATYYCQQYNRYWTFGQGTMVEIK
B4: H1M732N (antibody, V domains shown)
VH: EVQLVESGGGLVRPGGSLRLSCAASGFTFTNAWMSWVRQAPGKGLEWIGQIKSKTDGGTIDYAAPVKGRFTVSRDDSENTLFLQMNSLKTEDTAVYYCAGNWNYVDFDYWGQGTLVTVSS
VL: DIQMTQSPSSLSASVGDRVTITCRASQDIRNDLGWYQQKPGKAPKRLIYAASSLQGGVPSRFSGSGSGTEFTLTISSLQPEDFATYYCLQHNSYPFTFGPGTKVDIK
B5: H2M744N (antibody, V domains shown)
VH: QVQLVQSGVEVKKPGASVKVSCKTSGYTFSNNGFSWVRQAPGQGLEWLGWISGYNGNTNYAQKFQGRVTMTTDTSTSTAYMELRTLRSDDTAVYYCARDQDYSNFHWLDPWGQGTLVTVAS
VL: DIQMTQSPSSVSASVGDRVIITCRASQGLSSWLAWYQQKPGTAPKLLIHSASSLQTGVPSRFSGSGSGTEFALTINSLQPEDFGTYYCQQANSFPLTFGGGTRVEIK

Molecular target: T3, Dimeric Human Ang-2FD conjugated to human IgG1 (human)
T3 construct: also called Human Ang-2FD-hFc; hAng-2FD-hFc
Assay: SPR, captured Ab, RT
Protocol: (§1) Antibody was captured on a goat anti-mouse IgG polyclonal antibody surface, a goat anti-human κ polyclonal antibody (Southern Biotech, Birmingham, Ala.) surface or a goat anti-human IgG polyclonal antibody (Jackson Immuno Research Lab, West Grove, Pa.) surface created through direct amine coupling to a BIACORE™ CM5 sensor chip to form a captured antibody surface. […] Antigen-antibody binding and dissociation were monitored in real time at room temperature. Kinetic analysis was performed to calculate KD and half-life of antigen/antibody complex dissociation.

Kd | T1/2 | Binder
0.154 nM | 2.78 h | B1
0.295 nM | 0.633 h | B2
0.137 nM | 0.973 h | B3
0.484 nM | 0.592 h | B4
0.0989 nM | 1.82 h | B5

Molecular target: T4, Dimeric Monkey Ang-2FD conjugated to human IgG1 (monkey (Macca fascicularis); human)
T4 construct: also called Monkey Ang-2FD-hFc
Assay: SPR, captured Ab, RT
Protocol: as §1

Kd | T1/2 | Binder
0.234 nM | 2.82 h | B1
6.17 nM | 0.475 h | B2
1.58 nM | 1.16 h | B3
7.33 nM | 0.402 h | B4
0.5 nM | 4.69 h | B5

Molecular target: T5, Dimeric Mouse Ang-2FD conjugated to human IgG1 (mouse (Mus musculus); human)
T5 construct: also called Mouse Ang-2FD-hFc
Assay: SPR, captured Ab, RT
Protocol: as §1

Kd | T1/2 | Binder
0.882 nM | 3.25 h | B1
0.61 nM | 0.513 h | B2
5.65 nM | 0.165 h | B3
1.7 nM | 0.357 h | B4
0.143 nM | 3.72 h | B5

Molecular target: T3, Dimeric Human Ang-2FD conjugated to …
Assay: competition ELISA, 16.67 nM Ab, coated hTie-2-mFc
Protocol: (§2) The plate was then blocked with PBS (Irvine Scientific, Santa Ana, Calif.) containing 0.5% BSA (Sigma-Aldrich Corp., St. Louis, Mo.) for one hour at room temperature. […] Human, mouse or monkey Ang-2FD protein conjugated to human IgG (Ang-2FD-hFc) were added to final concentrations of 2 nM, 8 nM, or 2 nM respectively and incubated for one hour at room temperature. The antibody/Ang-2FD-Fc mixture was then added to the plate containing hTie-2-mFc and incubated for one hour at room temperature. Detection of Ang-2FD-hFc bound to hTie-2-mFc protein was determined with Horse-Radish Peroxidase (HRP) conjugated to a-human IgG antibody (Jackson Immuno Research Lab, West Grove, Pa.) and developed by standard colorimetric response using tetramethylbenzidine (TMB) substrate (BD Biosciences, San Jose, Calif.). Absorbance was read at OD₄₅₀ for 0.1 sec.

Percent Blocking of Ang-2FD Binding to Tie-2 | Binder
99.6% | B1
99.6% | B2
98.5% | B3
97.7% | B4
99.5% | B5

Molecular target: T4, Dimeric Monkey Ang-2FD conjugated to …
Assay: competition ELISA, 16.67 nM Ab, coated hTie-2-mFc
Protocol: as §2

Percent Blocking of Ang-2FD Binding to Tie-2 | Binder
95.1% | B1
94.1% | B2
97.1% | B3
95.8% | B4
95.5% | B5

Molecular target: T5, Dimeric Mouse Ang-2FD conjugated to …
Assay: competition ELISA, 16.67 nM Ab, coated hTie-2-mFc
Protocol: as §2

Percent Blocking of Ang-2FD Binding to Tie-2 | Binder
98.4% | B1
98.6% | B2
83.9% | B3
90.9% | B4
98.4% | B5

Molecular target: T1, wild-type human Ang-2 (hAng-2-WT)
Assay: SPR, captured Ab

Kd | T1/2 | Binder
0.0143 nM | 39.4 h | B1
0.0679 nM | 7.28 h | B2
0.0338 nM | 12.1 h | B3
0.131 nM | 5.55 h | B4
0.0289 nM | 14.1 h | B5

Molecular target: T2, Monomeric hAng-2FD
Assay: SPR, captured Ab

Kd | T1/2 | Binder
0.399 nM | 2.61 h | B1
4.81 nM | 0.3 h | B2
1.17 nM | 0.565 h | B3
6.13 nM | 0.312 h | B4
0.475 nM | 1.49 h | B5
